Data on 1 substance can be found in article PMC12589613.

Test in all cases: single-molecule TIRF
One data set deals with MDA5 (human). The conditions noted are these: biotin on annealed RNA linkers 1 and 2, smTIRF imaging buffer, salt, pH and temperature not given in the material, proteins 3-100 nM, with or without ATP or ADPCP.
The next data set deals with MDA5(Q57E) (human). As to conditions: biotin on annealed RNA linkers 1 and 2; smTIRF imaging buffer, salt, pH and temperature not given in the material; proteins 3-100 nM, with or without ATP or ADPCP.
A further data set has as its system MDA5ΔN (human). As to conditions: biotin on annealed RNA linkers 1 and 2; smTIRF imaging buffer, salt, pH and temperature not given in the material; proteins 3-100 nM, with or without ATP or ADPCP.

Take 11.6-kb dsRNA: the binding signal (frequency of static binding) with MDA5 (human) (ADPCP, translocation 0) was found to be 0.337; in the data set with MDA5 (human) it was 0.022; with MDA5 (human) (no ATP, translocation 0), 0.136; in the data set with MDA5(Q57E) (human) it was 0.086; in the data set on MDA5ΔN (human), 0.105. Moreover, the binding signal (frequency of translocation) was 0.114 with MDA5 (human), 0.527 in the data set with MDA5(Q57E) (human) and 1.42 with MDA5ΔN (human).
